Residue numbers refer to the chain shown, from its start. Blank lines part the entries; values can stand above or below the binder they belong to.
Key:
murine CD19 protein = biological target: T1, murine CD19 protein (murine, UniProt P25918 17-287, limits assumed); test: ELISA
T1 construct: bought protein; also called commercial murine CD19
T1 sequence (looked up): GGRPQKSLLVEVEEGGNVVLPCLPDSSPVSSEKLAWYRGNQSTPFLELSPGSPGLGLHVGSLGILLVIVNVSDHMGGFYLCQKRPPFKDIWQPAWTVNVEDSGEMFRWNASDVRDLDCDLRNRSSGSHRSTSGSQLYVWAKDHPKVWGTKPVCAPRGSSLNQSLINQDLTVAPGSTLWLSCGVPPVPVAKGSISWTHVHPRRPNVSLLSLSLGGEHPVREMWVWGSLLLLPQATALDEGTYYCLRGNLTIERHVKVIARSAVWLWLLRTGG
Protocol: Human CD19-his protein (purchased from ACROBiosystems, catalog number: CD9-H52H2) was diluted with PBS to a final concentration of 4 μg/mL, and then added to a 96-well ELISA plate at 100 μl/well. The plate was sealed with a plastic film and incubated overnight at 4° C., the plate was washed 2 times with PBS the next day, and then a blocking solution [PBS+2% (w/w) BSA] was added for blocking at room temperature for 2 h. The blocking solution was poured off, and 100 nM gradiently diluted CD19 chimeric antibody or control antibody was added at 50 μl/well. After incubation at 37° C. for 2 h, the plate was washed 3 times with PBS. […] TMB substrate was added at 50 μl/well, and incubated at room temperature for 10 min, and then a stop solution (1.0 N HCl) was added at 50 μl/well. The OD450 nm values were read by an ELISA microplate reader (Multimode Plate Reader, EnSight, purchased from Perkin Elmer).
In order to detect the species cross-binding activity of the chimeric antibodies, an ELISA plate was coated with commercial murine CD19 (ACROBiosystems, catalog number: 50510-M08H) and monkey CD19 (ACROBiosystems, catalog number: 90051-C08H), respectively, and the ELISA detection was performed according to the method in example 5.1. […]

[1] = biological target: T2, human CD19 exon1-3-his protein (human, UniProt P15391 20-186, limits assumed); test: ELISA, coated at 2 ug/mL
T2 construct: made in HEK293E cells; also called membrane-distal end; not shown: His tag
T2 sequence (looked up): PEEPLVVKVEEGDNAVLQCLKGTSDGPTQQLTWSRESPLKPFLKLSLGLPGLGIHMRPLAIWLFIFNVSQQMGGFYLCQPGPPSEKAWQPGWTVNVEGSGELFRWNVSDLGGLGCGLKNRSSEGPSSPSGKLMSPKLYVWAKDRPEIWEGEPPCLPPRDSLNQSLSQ

binding result (murine CD19 protein): no binding
binding result [1]: no binding
B1: F3.121.4-L1H2 (antibody, mouse IgG1, kappa, V domains shown)
VH: EVQLVQSGAEVKKPGASVKVSCKASGYTFTNYWMHWVRQAPGQGLEWMGEIDPSDNYANYNQEFQGRVTITVDKSASTAYMELSSLRSEDTAVYYCARHDGYFGALDYWGQGTTVTVSS
VL: EIVLTQSPATLSLSPGERATLSCSASSSISSNYLHWYQQKPGQAPRFLIYRTSNLASGIPARFSGSGSGTDFTLTISSLEPEDFAVYYCQQASSIPRMFTFGQGTKLEIKR
notes: murine IgG1 constant regions; also called humanized antibody of F3.121.4

binding result (murine CD19 protein): no binding
binding result [1]: no binding
B2: F3.121.4-L1H1 (antibody, mouse IgG1, kappa, V domains shown)
VH: B1 VH with G44R
VL: B1 VL
notes: as for B1

binding result (murine CD19 protein): no binding
binding result [1]: no binding
B3: F3.121.4-L1H3 (antibody, mouse IgG1, kappa)
heavy: EVQLVQSGAEVKKPGASVKVSCKASGYTFTNYWMHWVRQRPGQGLEWMGEIDPSDNYANYNQEFQGRVTITVDKSASTAYMELSSLRSEDTAVYYCARHDGYFGALDYWGQGTTVTVSSAKTTPPSVYPLAPGSAAQTNSMVTLGCLVKGYFPEPVTVTWNSGSLSSGVHTFPAVLQSDLYTLSSSVTVPSSTWPSETVTCNVAHPASSTKVDKKIVPRDCGCKPCICTVPEVSSVFIFPPKPKDVLTITLTPKVTCVVVDISKDDPEVQFSWFVDDVEVHTAQTQPREEQFNSTFRSVSELPIMHQDWLNGKEFKCRVNSAAFPAPIEKTISKTKGRPKAPQVYTIPPPKEQMAKDKVSLTCMITDFFPEDITVEWQWNGQPAENYKNTQPIMDTDGSYFVYSKLNVQKSNWEAGNTFTCSVLHEGLHNHHTEKSLSHSPGK
light: EIVLTQSPATLSLSPGERATLSCSASSSISSNYLHWYQQKPGQAPRFLIYRTSNLASGIPARFSGSGSGTDFTLTISSLEPEDFAVYYCQQASSIPRMFTFGQGTKLEIKRADAAPTVSIFPPSSEQLTSGGASVVCFLNNFYPKDINVKWKIDGSERQNGVLNSWTDQDSKDSTYSMSSTLTLTKDEYERHNSYTCEATHKTSTSPIVKSFNRNEC
notes: as for B1

From US20250042994A1 (HAINAN SIMCERE ZAIMING PHARMACEUTICAL, published 2025)
